In the series the test system is Escherichia coli TOP10. The series is described as follows: shrunken log2 fold change of peptide-encoding DNA abundance (4.5 h post-induction vs induction); higher = less antimicrobial activity (less host growth inhibition). To be noted: time post-induction: 4.5 h; library: site-saturation at positions 5, 18, 19, 20.
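Further: peptides expressed intracellularly from a pBAD plasmid library in pooled LB shake-flask culture, induced with 0.3% L-arabinose, DNA abundance read by NGS, three biological replicates, DESeq2 with apeglm shrinkage.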

RRIRFRPPRLPRPRPRPMMFPRP: the “shrunken log2 fold change” value came out at 0.126.

RRIRMRPPRLPRPRPRPADNPRP: the “shrunken log2 fold change” value was found to be 0.0259.

RRIRDRPPRLPRPRPRPQPQPRP: the “shrunken log2 fold change” value was found to be 0.517.

As for RRIRNRPPRLPRPRPRPRCTPRP, the “shrunken log2 fold change” value was -0.263.

For RRIRPRPPRLPRPRPRPNFCPRP, the “shrunken log2 fold change” value worked out at 0.257.

As for RRIRSRPPRLPRPRPRPTSYPRP, the “shrunken log2 fold change” value is -0.0485.

Consider RRIRTRPPRLPRPRPRPCPRPRP, for which the “shrunken log2 fold change” value was -0.13.

Consider RRIRYRPPRLPRPRPRPHKSPRP, for which the “shrunken log2 fold change” value was -0.526.

On to RRIRWRPPRLPRPRPRPREWPRP, for which the “shrunken log2 fold change” value is 1.22.

Regarding RRIRWRPPRLPRPRPRPHATPRP, the “shrunken log2 fold change” value amounted to 0.816.

On to RRIRWRPPRLPRPRPRPGAHPRP, for which the “shrunken log2 fold change” value came to 0.32.

Regarding RRIRGRPPRLPRPRPRPWMQPRP, the “shrunken log2 fold change” value was -0.539.

RRIRYRPPRLPRPRPRPYLNPRP: the “shrunken log2 fold change” value was -0.802.

As to RRIRGRPPRLPRPRPRPQKHPRP, the “shrunken log2 fold change” value turned out to be 0.982.

RRIRQRPPRLPRPRPRPTPYPRP: the “shrunken log2 fold change” value is -0.266.

With RRIRRRPPRLPRPRPRPRSCPRP, the “shrunken log2 fold change” value stood at 0.182.

On to RRIRERPPRLPRPRPRPPVQPRP, for which the “shrunken log2 fold change” value was -0.122.

On to RRIRMRPPRLPRPRPRPLSGPRP, for which the “shrunken log2 fold change” value amounted to 0.815.

On to RRIRHRPPRLPRPRPRPHFDPRP, for which the “shrunken log2 fold change” value is -0.107.

As to RRIRARPPRLPRPRPRPANPPRP, the “shrunken log2 fold change” value was 0.425.

For RRIRMRPPRLPRPRPRPSGSPRP, the “shrunken log2 fold change” value is 0.133.

As to RRIRIRPPRLPRPRPRPIYHPRP, the “shrunken log2 fold change” value is -0.622.

For RRIRIRPPRLPRPRPRPHKHPRP, the “shrunken log2 fold change” value is -0.881.

On to RRIRLRPPRLPRPRPRPTMMPRP, for which the “shrunken log2 fold change” value is -0.282.

As to RRIRKRPPRLPRPRPRPFDIPRP, the “shrunken log2 fold change” value is -0.0132.

For RRIRERPPRLPRPRPRPIMRPRP, the “shrunken log2 fold change” value is -0.102.

With RRIRSRPPRLPRPRPRPTCWPRP, the “shrunken log2 fold change” value worked out at 1.09.

As for RRIRPRPPRLPRPRPRPMARPRP, the “shrunken log2 fold change” value is 0.154.

Turning to RRIRWRPPRLPRPRPRPAQGPRP, the “shrunken log2 fold change” value worked out at 0.27.

On to RRIRARPPRLPRPRPRPYSIPRP, for which the “shrunken log2 fold change” value is -0.374.

With RRIRCRPPRLPRPRPRPLWTPRP, the “shrunken log2 fold change” value was -0.00711.

Turning to RRIRTRPPRLPRPRPRPEDPPRP, the “shrunken log2 fold change” value was -0.00217.

Turning to RRIRPRPPRLPRPRPRPSERPRP, the “shrunken log2 fold change” value is -0.0297.

For the sequence RRIRERPPRLPRPRPRPTTWPRP, the “shrunken log2 fold change” value was found to be 0.0447.

As for RRIRIRPPRLPRPRPRPCEQPRP, the “shrunken log2 fold change” value is 0.0927.

RRIRARPPRLPRPRPRPCYTPRP: the “shrunken log2 fold change” value was -0.486.

Consider RRIRGRPPRLPRPRPRPDMCPRP, for which the “shrunken log2 fold change” value was found to be 1.27.

Turning to RRIRMRPPRLPRPRPRPCLEPRP, the “shrunken log2 fold change” value came out at 0.126.

For RRIRWRPPRLPRPRPRPTSTPRP, the “shrunken log2 fold change” value came to 0.0842.

Take RRIRQRPPRLPRPRPRPFWHPRP: the “shrunken log2 fold change” value is -0.469.

On to RRIRCRPPRLPRPRPRPDMPPRP, for which the “shrunken log2 fold change” value was -0.253.

As to RRIRMRPPRLPRPRPRPITFPRP, the “shrunken log2 fold change” value was determined as 0.0589.

Turning to RRIRKRPPRLPRPRPRPSCVPRP, the “shrunken log2 fold change” value worked out at 0.311.

With RRIRARPPRLPRPRPRPVIYPRP, the “shrunken log2 fold change” value was -0.308.

RRIRFRPPRLPRPRPRPIEHPRP: the “shrunken log2 fold change” value was -0.215.

As for RRIRERPPRLPRPRPRPSEYPRP, the “shrunken log2 fold change” value was -0.27.

RRIRQRPPRLPRPRPRPVYKPRP: the “shrunken log2 fold change” value was -0.612.

In the case of RRIRWRPPRLPRPRPRPWNQPRP, the “shrunken log2 fold change” value is -0.067.

Regarding RRIRRRPPRLPRPRPRPEMSPRP, the “shrunken log2 fold change” value turned out to be 0.0923.

Regarding RRIRGRPPRLPRPRPRPLPAPRP, the “shrunken log2 fold change” value came to 1.33.

Consider RRIRSRPPRLPRPRPRPGCRPRP, for which the “shrunken log2 fold change” value was found to be 0.293.

As for RRIRCRPPRLPRPRPRPNVHPRP, the “shrunken log2 fold change” value is -0.532.

RRIRLRPPRLPRPRPRPIIWPRP: the “shrunken log2 fold change” value was -0.000825.

As for RRIRFRPPRLPRPRPRPRMPPRP, the “shrunken log2 fold change” value was 0.145.

As to RRIRFRPPRLPRPRPRPALAPRP, the “shrunken log2 fold change” value worked out at 0.257.

RRIRFRPPRLPRPRPRPECYPRP: the “shrunken log2 fold change” value is -0.155.

As for RRIRNRPPRLPRPRPRPSCRPRP, the “shrunken log2 fold change” value was determined as 0.0168.

For RRIRVRPPRLPRPRPRPESMPRP, the “shrunken log2 fold change” value is -0.149.

Take RRIRMRPPRLPRPRPRPPCAPRP: the “shrunken log2 fold change” value was 2.14.

Take RRIRKRPPRLPRPRPRPYTLPRP: the “shrunken log2 fold change” value turned out to be 0.0187.

As for RRIRNRPPRLPRPRPRPQPFPRP, the “shrunken log2 fold change” value was -0.0278.

Take RRIRSRPPRLPRPRPRPSPHPRP: the “shrunken log2 fold change” value was -0.194.

In the case of RRIRIRPPRLPRPRPRPPHYPRP, the “shrunken log2 fold change” value was -0.707.

As for RRIRNRPPRLPRPRPRPVCGPRP, the “shrunken log2 fold change” value is 0.0972.

As for RRIRQRPPRLPRPRPRPMHKPRP, the “shrunken log2 fold change” value worked out at 0.0742.

Turning to RRIRHRPPRLPRPRPRPRNNPRP, the “shrunken log2 fold change” value is -0.493.

For RRIRRRPPRLPRPRPRPLMLPRP, the “shrunken log2 fold change” value is -0.108.

With RRIRWRPPRLPRPRPRPTMQPRP, the “shrunken log2 fold change” value came to 0.13.

For RRIRKRPPRLPRPRPRPHLQPRP, the “shrunken log2 fold change” value is 0.224.

In the case of RRIRDRPPRLPRPRPRPNRSPRP, the “shrunken log2 fold change” value stood at 0.0428.

Turning to RRIRFRPPRLPRPRPRPMCGPRP, the “shrunken log2 fold change” value was -0.164.

Regarding RRIRYRPPRLPRPRPRPLNNPRP, the “shrunken log2 fold change” value was -1.29.

For RRIRNRPPRLPRPRPRPNSIPRP, the “shrunken log2 fold change” value was -0.728.

As to RRIRFRPPRLPRPRPRPLRVPRP, the “shrunken log2 fold change” value is -0.108.

In the case of RRIRKRPPRLPRPRPRPNYLPRP, the “shrunken log2 fold change” value is -0.0798.

With RRIRLRPPRLPRPRPRPLNPPRP, the “shrunken log2 fold change” value is -0.0831.

As to RRIRIRPPRLPRPRPRPKCTPRP, the “shrunken log2 fold change” value is -0.233.

For the sequence RRIRPRPPRLPRPRPRPVQQPRP, the “shrunken log2 fold change” value stood at 0.378.

For RRIRYRPPRLPRPRPRPGAGPRP, the “shrunken log2 fold change” value was 0.0814.

In the case of RRIRQRPPRLPRPRPRPNVIPRP, the “shrunken log2 fold change” value was -0.0189.

As to RRIRSRPPRLPRPRPRPVLTPRP, the “shrunken log2 fold change” value is -0.0627.

As for RRIRYRPPRLPRPRPRPIKRPRP, the “shrunken log2 fold change” value is -0.767.

As for RRIRCRPPRLPRPRPRPEHHPRP, the “shrunken log2 fold change” value is -0.114.

Consider RRIRQRPPRLPRPRPRPHHEPRP, for which the “shrunken log2 fold change” value came out at 0.0974.

With RRIRNRPPRLPRPRPRPFQEPRP, the “shrunken log2 fold change” value is -0.0276.

Take RRIRDRPPRLPRPRPRPNPIPRP: the “shrunken log2 fold change” value is -0.132.

RRIRNRPPRLPRPRPRPPMVPRP: the “shrunken log2 fold change” value is -0.0558.

For the sequence RRIRDRPPRLPRPRPRPKSQPRP, the “shrunken log2 fold change” value is 0.231.

In the case of RRIRFRPPRLPRPRPRPKDAPRP, the “shrunken log2 fold change” value was 0.141.

As for RRIRHRPPRLPRPRPRPYDGPRP, the “shrunken log2 fold change” value was -0.00992.

In the case of RRIRTRPPRLPRPRPRPLNMPRP, the “shrunken log2 fold change” value turned out to be 0.00244.

In the case of RRIRYRPPRLPRPRPRPVIIPRP, the “shrunken log2 fold change” value is -0.156.

Consider RRIRHRPPRLPRPRPRPTQDPRP, for which the “shrunken log2 fold change” value was determined as 1.87.

On to RRIRIRPPRLPRPRPRPESFPRP, for which the “shrunken log2 fold change” value is -0.0048.

As to RRIRDRPPRLPRPRPRPTWLPRP, the “shrunken log2 fold change” value turned out to be 0.909.

As for RRIRVRPPRLPRPRPRPVATPRP, the “shrunken log2 fold change” value came to 0.212.

Regarding RRIRLRPPRLPRPRPRPFNWPRP, the “shrunken log2 fold change” value was -0.223.

On to RRIRPRPPRLPRPRPRPSKEPRP, for which the “shrunken log2 fold change” value is -0.374.

RRIRVRPPRLPRPRPRPGFWPRP: the “shrunken log2 fold change” value turned out to be 0.587.

As to RRIRERPPRLPRPRPRPYLFPRP, the “shrunken log2 fold change” value was -0.137.

As to RRIRVRPPRLPRPRPRPFRLPRP, the “shrunken log2 fold change” value was -0.267.

For the sequence RRIRPRPPRLPRPRPRPYQQPRP, the “shrunken log2 fold change” value is -0.139.

For the sequence RRIRYRPPRLPRPRPRPINAPRP, the “shrunken log2 fold change” value is -0.469.

On to RRIRRRPPRLPRPRPRPTHGPRP, for which the “shrunken log2 fold change” value was found to be 1.37.

In the case of RRIRGRPPRLPRPRPRPVEMPRP, the “shrunken log2 fold change” value amounted to 0.556.

Take RRIRRRPPRLPRPRPRPWYLPRP: the “shrunken log2 fold change” value is -0.313.

Take RRIRKRPPRLPRPRPRPRMCPRP: the “shrunken log2 fold change” value is -0.211.

Consider RRIRGRPPRLPRPRPRPGADPRP, for which the “shrunken log2 fold change” value amounted to 1.48.

Turning to RRIRSRPPRLPRPRPRPFMAPRP, the “shrunken log2 fold change” value was -0.497.

Take RRIRNRPPRLPRPRPRPCPYPRP: the “shrunken log2 fold change” value was -0.0128.

RRIRKRPPRLPRPRPRPVKDPRP: the “shrunken log2 fold change” value stood at 0.0491.

In the case of RRIRYRPPRLPRPRPRPGKAPRP, the “shrunken log2 fold change” value was -0.00206.

Take RRIRYRPPRLPRPRPRPYDGPRP: the “shrunken log2 fold change” value is -0.155.

As for RRIRIRPPRLPRPRPRPREEPRP, the “shrunken log2 fold change” value amounted to 0.0171.

As for RRIRDRPPRLPRPRPRPQPSPRP, the “shrunken log2 fold change” value turned out to be 0.234.

For the sequence RRIRNRPPRLPRPRPRPWQHPRP, the “shrunken log2 fold change” value was 0.178.

For the sequence RRIRARPPRLPRPRPRPHPWPRP, the “shrunken log2 fold change” value was -0.00896.

Consider RRIRWRPPRLPRPRPRPPRPPRP, for which the “shrunken log2 fold change” value came to 0.859.

Take RRIRFRPPRLPRPRPRPRCPPRP: the “shrunken log2 fold change” value is 0.262.

For the sequence RRIRFRPPRLPRPRPRPWWIPRP, the “shrunken log2 fold change” value was -0.681.

Consider RRIRERPPRLPRPRPRPTCDPRP, for which the “shrunken log2 fold change” value is 0.158.

Turning to RRIRMRPPRLPRPRPRPKAQPRP, the “shrunken log2 fold change” value was determined as 1.72.

RRIRSRPPRLPRPRPRPWEGPRP: the “shrunken log2 fold change” value is -0.0466.

Turning to RRIRMRPPRLPRPRPRPWIEPRP, the “shrunken log2 fold change” value was -0.092.

As for RRIRLRPPRLPRPRPRPCDPPRP, the “shrunken log2 fold change” value was -0.14.

The values are drawn from the supplement of paper PMC9112550, “Optimization of the antimicrobial peptide Bac7 by deep mutational scanning” (BMC Biology, 2022).
